Test results from the supplement of paper PMC10567573.

B1: PWWP2B (parent)
chain: TIRLRPRQVLCEKCKSTLSPPEAS

Variants of: B1
Experiment: protein stability index of a GFP-peptide fusion (GPS, HEK-293T) (PSI 1-6); higher = more stable
Conditions: c terminus: a fixed tail appended
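Also: lentivirally expressed fusions sorted by FACS into six bins by GFP to DsRed ratio, PSI derived from sequencing read proportions per bin multiplied by bin number.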

Protein stability index: each site, then its substitutions
L10: Y 2.5 | W 2.48 | V 3.61
S16: N 3.34 | C 2.98 | I 2.66 | D 2.78 | V 2.61 | H 2.76 | W 1.96 | L 2.59 | Y 2.27 | R 3.2 | G 3.07 | P 2.73 | Q 3.35 | F 2.18 | M 2.94 | E 3.65 | A 3.08 | K 3.09 | T 2.92
S19: M 2.74 | K 2.56 | C 2.99 | H 2.68 | F 2.83 | L 2.72 | I 3.35 | A 3.02 | D 3.68 | N 3.25 | E 3.32 | G 2.29
T17: M 2.77 | L 3 | F 2.56 | Q 2.78 | A 3.33 | P 3.44 | R 2.77 | G 2.82 | I 2.88 | C 2.5 | S 2.96 | V 2.48 | Y 2.18 | K 2.62 | E 3.97 | W 1.89 | N 2.76 | D 3.19 | H 2.76
K15: G 2.83 | R 2.59 | A 2.71 | D 3.58 | Q 2.72 | F 3.01 | M 2.79 | E 3.72 | C 2.41 | N 3.26 | W 2.76 | H 2.57 | I 2.51 | S 2.74 | Y 2.73 | V 2.71 | T 3.07 | L 2.76 | P 4.03
K13: F 2.46 | G 2.6 | C 2.74 | N 2.78 | R 3.37 | Q 2.83 | S 3 | M 2.84 | W 2.49 | A 2.72 | T 2.39 | Y 2.24 | V 2.71 | I 2.73 | D 3.39 | P 3.22 | H 2.53 | E 3.32 | L 1.81
L18: C 3.15 | G 3.7 | S 2.87 | M 3.94 | K 3.11 | N 3.63 | T 3.08 | E 3.92 | I 3.03 | F 2.89 | A 2.86 | H 3.85 | P 3.94 | W 1.96 | D 3.78 | V 3.18 | Y 2.83 | Q 3.05 | R 2.49
E12: F 2.25 | L 1.97 | Q 2.33 | N 2.81 | G 2.59 | H 3.03 | W 2.28 | I 1.93 | K 2.42 | S 3.01 | Y 2.2 | A 2.59 | V 2.39 | T 2.82 | R 3.08 | D 3.28 | P 2.99 | C 2.26 | M 2.26
C11: N 3.62 | M 2.86 | F 2.53 | D 3.93 | L 2.84 | V 3.25 | P 3.46 | S 3.73 | T 3.6 | H 3.13 | E 4.15 | I 3.33 | W 2.23 | K 3.58 | G 3.85 | Y 3.25 | R 3.4 | A 3.06 | Q 3.57
C14: I 3.64 | V 3.52 | W 2.58 | D 4.04 | E 4.23 | K 4.05 | M 3.44 | H 3.52 | N 4.05 | Q 4.05 | G 4.08 | S 3.84 | L 3.13 | R 3.32 | Y 3.45 | T 4.22 | P 4.29 | F 3.19 | A 3.85
